Assay results published in the DeepSol protein solubility set.

Experiment: soluble on expression in E. coli; label from the status in PepcDB or PDB records

| Sequence | soluble on expression in E. coli |
| --- | --- |
| MLCSRYFTSSLFLWGEALPTLLEEFLNEVEKMLKNQVNTRRIHQLLKELDDPLLENKDLEEKLQAFLDYVKEIPNLPEARKRYRIQKSLEMIEKLRSWFLIDYLECSGEEVDLSTDIQYAKGVGPNRKKKLKKLGIETLRDLLEFFPRDYEDRRKIFKLNDLLPGEKVTTQGKIVSVETKKFQNMNILTAVLSDGLVHVPLKWFNQDYLQTYLKQLTGKEVFVTGTVKSNAYTGQYEIHNAEVTPKEGEYVRRILPIYRLTSGISQKQMRKIFEENIPSLCCSLKETLPERILEKRKLLGVKDAYYGMHFPKTFYHLEKARERLAYEELFVLQLAFQKIRKEREKHGGIPKKIEGKLAEEFIKSLPFKLTNAQKRAHQEIRNDMISEKPMNRLLQGDVGSGKTVVAQLAILDNYEAGFQTAFMVPTSILAIQHYRRTVESFSKFNIHVALLIGATTPSEKEKIKSGLRNGQIDVVIGTHALIQEDVHFKNLGLVIIDEQHRFGVKQREALMNKGKMVDTLVMSATPIPRSMALAFYGDLDVTVIDEMPPGRKEVQTMLVPMDRVNEVYEFVRQEVMRGGQAFIVYPLIEESDKLNVKSAVEMYEYLSKEVFPEFKLGLMHGRLSQEEKDRVMLEFAEGRYDILVSTTVIEVGIDVPRANVMVIENPERFGLAQLHQLRGRVGRGGQEAYCFLVVGDVGEEAMERLRFFTLNTDGFKIAEYDLKTRGPGEFFGVKQHGLSGFKVADLYRDLKLLEWAREDVQEIDVEGIELPEEIKLIEVG | soluble |
| MSLYGRHTISIILREIFRLMDYPSIDTLLESAHIVTLPMKYPFMGLSERQAVLFEGPNSWAEYSPFMGCNDTRMWLASAIEYGWGNTNVLSVPNLDLDNTNFASRSKYGYIANPQTSNKDHSDNKRFYTQTKNHREIPVNAILPDIPASKMSEILGKDLQGCKCVKIKVGKHFQDRDIHRIRAVLDFMGADTMLRLDANCKWNVSETLNNLDVLEDNDLLENVSYIEQPCRTTRELITLKQKMDTRGYVTKIAIDESLRDLLLHWQKNRKWSNNSGITYTTELRETLSACDMLVLKLQPMGGMRAVADLLESIKNNIKVNVGYTVSSSLETSLGIEMGLALALNLPNITLPVGLATAGLLDADITDDPLLPNKGYITPRKIEVNKKLLNRYAADKRHVVWWHRRIRAAHRALFQDLSDEGHHHHHH | not soluble |
| HEHNISVTGGTDKIQYYLSANYLGQDGELRIGDEYSNRYTASAKINAQLSKIVSVGFNTRFIRSDYVQPTHLNESFFAEIGRQCWPTKPLYDPNGILYDDHVLQMQNGGEKQERNTWLYQQLNITVEPIKGWRLIGDLSYRYNTQYSHWDYLTVHQTGVDGKTKGNTWNNDSQVHEGTYASDYFNVNLYTDYAKTFAKSHNMKVLFGFQAEQNNYKDIAAEKLGVIYPGKPTINTSTGMDSNNQKVAPNVAGGHNRWATAGFFGRLNYDYLEKYLLEVNLRYDGSSRFRSDSRWGFFPSASVGWNIAREKFFLPVSKVVNTFKVRASYGSLGNQNTSSLYPTYSTIGTGTGSWIIDGTLANIAWAPSLVSYNLSWEKIRTWNAGVDFGLFNNRLTGSFDYYIRKTDDMVGPSEKLPVVLGTAVPSSNNTNLKTFGWELELMWKDRLNNGLNYSARFTLADSRTKITRYSNPSGLIDGFYAGKYVGEIWGYETIGIAQSDQEMAEHIGRLINGGQSNLGQDWKAGDIMYKDLNEDGKIDAGSRTLQDHGDLKRIGNSTPRYNVGLELAADWKGFDIRMFWQGTLKRDYFQGSYYFWGANGRQGPWFSTALKGHDDYFRNDEASPLGTNLNSYYPRPLFNTDKNQQSQTKYLQDASYLRLKNLQIGYSLPHNIVQKMGMQHLRIFASGENLFTITSLIDFFDPESIEGGSWGHGNVYPLSRTFSFGLNVTF | not soluble |
| MSLNTVIADFTERAGTGRVLKAEPEAIQLAPEQTALIVVDMQNAYTSIGGYLDLAGFDVSKTKPVVENIQKAVTAAHAAGIQVIYFKNGWDNQYVEAGGAGSPNFHKSNALKTMRKQPELQGKLLAKGGWDFELIDELQPKSQDIVIEKPRYSGFFNTALDSMLRARGIRNLVFVGIATNVCVESTLRDGFFLEYFGVALDDACYQAGPVEMHRASMYNIKTFFGWVSDTEGHHHHHH | not soluble |
| MKPRETKLLGSIREAIEKTGLKDGMTISFHHHFREGDYVMNLVLAEIAAMGLKNISIAPSSIANVHEPLIEHIKNGVVTNITSSGLRDKVGAAISAGIMENPVVIRSHGGRARAVAAGDIHIDVAFLGAPSSDAYGNANGTKGKATCGSLGYAMVDAKYADQVVIITDTLVPYPNTPISIPQTDVDYVVEIDAIGDPDGIAKGATRFTKNPKELLIAEYAAKIITHSPYYKEGFSFQTGTGGSSLAVTRFMREQMLKDGIKASFALGGITNAMVELLEEGLVEKIIDVQDFDHPSAISLGENANHYEIDANMYASPLSKGAVINQLDTAILSALEVDTDFNVNVITGSDGVIRGASGGHSDTSMACKMSLVIAPLVRGRIPTIVEQVNTVVTPGTSVDVVVTEVGIAINPKRTDLIDCFKTLDVPQFTLEELKDKAYNIVGTPEPIKYGDKVVALIEYRDGSLIDVVRNVLEHHHHHH | soluble |
| MSLTHTSDKHVTDEELELVTRGKADGIYMKAPNGSPTSLNERQWVQVRTRAFKNWFGDWENVPEAASRIPDDKYGNEQWTEEGYVYDLYVNSRNPFDPKDGQAVKKILQSLGSEIPVLSFYGGKGGTVSPEKALELASSKRNCWMLTETPEFLSKVREAGYDGLVGYDEGVKYIAVMSPGQLKDAYENTGAFSTSNDDIRFRQVYHGSPASLGHFDHAFTGTGEGAQAYGWGTYVTEVKGIARKYAAIGIKRGNHITYDGEPLSPVLDNEYYFDEVWRIWKRQILSSTDVDSLKRNISSVYMDGRTASAYSGRRKAFERQKQELLSDIDAGRIRIEPPRHLYTVEIPEDNGMNYLYWDRPVSAEQQGKIFLQLRKERFFFPEATAEFWSGRSHVWNSGKEFYGFLDYMFMNPDRDTDSQRLASGFLSRAGFTGIDYPAECSTGGRADGARNYVIFSEADLKITAHERFRFIGEKGASRLDRSEGASLRLENLAVAREMEKSGKDAGTIKAATGWERGADSKWRYETADFEYHPAGDLGYSRLLEKQSWHGELENLLDRQIEGETLSEAEWKRFEKLTELAAGLKEQDALRERIYLDDYVKDDELFQAYPEMKRTRLEFVDLPSADYCGGYLHPDNRIVINISRTDDVRSVLAHEIQHAIQTMEGFARGSNPGEFKNTVENVILDIVRATDGRILEGGGFDNTPKGIFAALDRKVPYGTILRHYDYPLSLVAEKYGYENIFDLVNDIGRFKSGIQEYRSTAGEVEARNVESRLDFTSAQRRNTLAVSTEDIARNGQIFLSRDVRMDELARHVSFLAGKLHIPVEVIRHADEVGSPDIRGLLSCGKDIRGWYDIPSQRVCLYLPHVRGKADVERTLLHEGVAHYGLRKLAGHKHMDAFLDDIFNGCGEKVRDEILRMAAADRTDIRVATEEYLARMAEDGTDQSLWDRIVTAFRNLLRKLGFCLEIGTRELRGILAASRKNLIGIAEPTVIQTARGDLELSCGYGRAVLRRQGVETDVTSLLERMRKAGISPASLGQEDWKAVFNGGIILPGGRKLMAVREPAGYGMRISGVSPGSTREGHHHHHH | soluble |
| MLRNGRLFGHRVETGFPDLPILEVSLRTGVRVRDMDNLKRKQVMSQKEKYKRAVKGDIAYNMMRMWQGAVGPVPEDGLVSPAYVVVKPYAEANSTYFSYLFRTAAYMQEVNKFSRGIVADRNRLYWESFKQMPSLVPPRPEQDQIVTYLRTQDAHIACFIRAKRDLIALLTEQKLRIIDHAVTRGLDASVKLKPSDIEWLGEVPAHWEVKRLKFLAGNITSQTTTKADDEIYLALEHVQSWTGVARPLGGEVEFASTVKRFVADDVLFGKLRPYLAKVTRVVCAGVCVSEFLVLRSRQELILPAYLEQLLRCKRVIDLISSSTAGAKMPRADWNFIGNVRLPIPRKDEQEAILSHIGRETKDLDETIARAEDEIKLIREYRDRLIADAVTGQVDLRGWQPGPDDVVSDDDLAALGDDDAGSSDDEEADA | not soluble |
| MTYPYRTTMALNTYQYRETTMIDPKKIEQIARQVHESMPKGIREFGEDVEKKIRQTLQAQLTRLDLVSREEFDVQTQVLLRTREKLALLEQRISELENRSTEIKKQPDPETLPPTLLEHHHHHH | not soluble |
| MAVLAALLRSGARSRSPLLRRLVQEIRYVERSYVSKPTLKEVVIVSATRTPIGSFLGSLSLLPATKLGSIAIQGAIEKAGIPKEEVKEAYMGNVLQGGEGQAPTRQAVLGAGCDGGRWDGEHVHVPYVMNRGSTPYGGVKLEDLIVKDGLTDVYNKIHMGSCAENTAKKLNIARNEQDAYAINSYTRSKAAWEAGKFGNEVIPVTVTVKGQPDVVVKEDEEYKRVDFSKVPKLKTVFQKENGTVTAANASTLNDGAAALVLMTADAAKRLNVTPLARIVGKARRGGSHL | not soluble |
| MLTRSMVLVNEAWWVEPLPVHWVDKLVAELEAKLQNRGKDEYIFNGGLSVSGLQHIGRLRGEVLLGEAVRRELEKRGFRVKQLLTLYTVDPWKGKDEQRREFPDPKAAERYVGWPLDRVPDPKGCHASWVDHFWSDFGPYIGVFTDGKIEVVTTRELYKGRLKEFITTMVLPRRDEIRRVINKYRGRKPYQEGWIPLEPRCARCGRIDSTEALEILGGERVRYRCSYCGYQGESSIEDSKLNWRIEWAGVWWSLGVDFEPYGKDHATPGGSRDSAAELARLLGFEPPEGVWYEWVSLRAGGREADMSSSGFTGITPREWLDIAHPQILRFIYFLHPPTRRVVVDLSEIPSYYSQYYRAERIYFGIEEASTVEETRYLARTYELSHPSNPPAKPPSQIPYSHAAIVAQVVGPERLWTDGLERLKRAGLLGHDEYSIRWAKELLEKAYKWARRYAPKHLKFEIPDSPPEDALRRIEKPDLLEKLAEVLESVEEWSEERIKQALVEFGEGMSSSERRRFYRDFYLAIVGRPEGPRAAPLLSLMDRGFVVDRLRKAANLSRELKGR | soluble |
| MGSDKIHHHHHHMNTRILNALKQTTLIEEKQKASHCFVEDMPPYAINQELSLKEHGRVLSNYFFKNKDIYISRHNRYADYPTHTHTFLEMNYMLQGHATEIVDDKKITLNTGDLLLLDEGSTHSIKALGDNDLLINILFRTKNISINLLNDLRRSNNIFYDFLLSQVIEDSNHKRDYLVFTKKRNNEVQETLDRIIDEYYLKRDFSNSIIKSYLSILLVQLVREYPLNGPHQENKSSLLAIKVLKAIAEEYKTVSLEELANRYNYNKNYLSNIFKSEVGQTFSEVLTRQRLIQAHTLIASTSLPIATIMEQVGIKNKTFFYQKYKNYYKTLPSTDR | not soluble |
| MGSDKIHHHHHHMQGLGLIVCRQGSFQFSLDNKCASAKAGETLFIHEESWVQVLQETEDVEILILAYQIEPIRDIIGNSVVSMYMYSKLTPELSCVWNTGEEDEIMKYMSLIDSVLEMEESVFSLYEQKLLLLALTYRICSVYNRKLISAGQETGGRKNEIFVRLIQLIEQYYMQERSVEFYADKLCLSPKYLSALSKSICGYTVQELVFKAIIRKCISLLKNTQKNIQEISNEFGFPNASYFGTFFKKQMGMSPQQYRRNL | not soluble |
| MQETRLMENEYSVNLPTKFWYRGKTYNGFINLVNIFRATMILGTPGSGKSYAIVNQFIKQTIEKSYALYIYDFKFDDLSVIAYNHLLKYRYRYKVPPKFYVINFDNPRKSHRCNPLAPELMTDISDAYESSYTIMLNLNKSWVQKQGDFFVESPIVLFTAIIWFLKIYEGGKFCTFPHAIELLNKRYEDVFTILTSYPDLENYLSPFIDAWKGGASEQLQGQIASAKIPLSRLISPQLYWVMSGSDFTLDINNPKEPKVLCVGNNPDRISIYGAALGLYNSRIVKLINKKKQLKSCVIIDELPTIFFKGLDNLIATARSNKVAVVLGFQDFSQLKRDYGDKEAAVIMSTVGNVFSGQVVGETAKTLSERFGKILQKRESMSINRNDTSTSINTQLDSLIPASKISTLSQGMFVGAVADNFGETIEQKIFHAQIVVDNEAVQKETAAYQPIPEISSFLDENGNDTMEQQIQANYRQIKQDIVELVENELIRIENDPELKYLLNNEM | not soluble |
